From US7790697B2, “Compositions and methods for inhibiting the synthesis or expression of MMP-1” (Trustees of Dartmouth College, priority 2004, dated 2010)

Legend:
MMP-1 mRNA = MMP-1 mRNA by real-time RT-PCR in transiently transfected NIH/3T3 cells; format: cell-based, human; settings: NIH/3T3 cells co-transfected with pCMV-MMP-1 and peGFP; 48 hours after transfection; normalized to eGFP mRNA; P=0.015
Protocol: Transfection of NIH/3T3 and MDA-231 Cells. NIH/3T3 cells were transiently transfected with LIPOFECTAMINE™ 2000 (INVITROGEN™, Carlsbad, Calif.) along with 0.5 μg peGFP, 0.5 μg pCMV-MMP-1, and 2 μg PSUPER™-MMP-1 shRNA or PSUPER™ with no insert. Transfection efficiency was monitored using eGFP signal. Total cellular RNA was harvested 48 hours after transfection and analyzed for MMP-1 mRNA by real-time RT-PCR. MDA-231 cells were stably transfected in triplicate with LIPOFECTAMINE™ 2000 (INVITROGEN™, Carlsbad, Calif.) and 2 μg of the PSUPER™.Retro.Neo.GFP plasmid containing the MMP-1 shRNA, the scrambled sequence or just the empty vector. Stable cell lines were selected by growth in the presence of 1 mg/mL G418 (STRATAGENE®, La Jolla, Calif.). Individual, stable cell lines were isolated with cloning disks according to the manufacturer's instructions (PGC Scientifics, Frederick, Md.).
RNA Isolation and Real-Time RT-PCR.
To test the efficacy of the shRNA inhibition of MMP-1 expression, shRNA composed of SEQ ID NO:1 and SEQ ID NO:2 was cloned it into the PSUPER™ shRNA vector. Two PSUPER™ plasmids were used; one with the MMP-1 shRNA sequence to block MMP-1 gene expression, and one with only the plasmid vector. […]

MMP-2 mRNA = test: Specificity qRT-PCR, MMP-2 mRNA in stable MDA-231 cells; format: cell-based, human; settings: stable MDA-231 cell lines, 24 hour serum-free; group average ± S.D.; P=0.3 vs empty vector
Description: (§1) RNA Isolation and Real-Time RT-PCR. […] Real-Time PCR Primer Sequences. […] ID NO:7; MMP-1 reverse [NT] ID NO:8; MMP-2 forward [NT] ID NO:9; MMP-2 reverse [NT] ID NO:10; MMP-9 forward [NT] ID NO:11; MMP-9 reverse [NT] ID NO:12; MMP-13 forward [NT], SEQ ID NO:13; MMP-13 reverse [NT] ID NO:14; MMP-14 forward [NT] ID NO:15; MMP-14 reverse [NT] ID NO:16; GAPDH forward [NT] ID NO:17; GAPDH reverse [NT] ID NO:18; eGFP forward [NT] ID NO:19; eGFP reverse [NT] ID NO:20. Real-Time PCR Standards.

MMP-9 mRNA = test: Specificity qRT-PCR, MMP-9 mRNA in stable MDA-231 cells; format: cell-based, human; settings: stable MDA-231 cell lines, 24 hour serum-free; group average ± S.D.; P=0.1 vs empty vector
Description: as §1

MT1-MMP (MMP-14) mRNA = test: Specificity qRT-PCR, MT1-MMP (MMP-14) mRNA in stable MDA-231 cells; format: cell-based, human; settings: stable MDA-231 cell lines, 24 hour serum-free; group average ± S.D.; P=0.4 vs empty vector
Description: as §1

[1] = system: MDA-231 cells in type I collagen gel; test: In vitro collagen gel destruction assay; format: cell-based; settings: MDA-231 cells producing the shRNA
Protocol: In vitro Collagen Gel Destruction Assay. Collagen preparations were carried out on ice to prevent premature jelling. A solution of purified type I bovine collagen (Cohesion Technologies, Palo Alto, Calif.) was neutralized with a sterile 10× phosphate-buffered saline (pH 7.4), and 0.1 M NaOH. The solution of neutralized collagen (2 mg/mL) was mixed with an equivalent volume of cells suspended in serum free DMEM to yield a final concentration of 2×10^5 cells/mL in 1 mg/mL fibrillar collagen, and 1 mL of the collagen/cell mixture was added to each well of a six-well plate. After approximately 1 hour, the collagen jelled, and 1 mL of serum-free media was added on top of the gel. For some experiments, 25 μM ILOMASTAT® (CHEMICON®, Temecula, Calif.), 50 U/mL aprotinin (Sigma, St. Louis, Mo.), 1 μg/mL neutralizing MMP-1 antibody (MMP-1 ab-5; ONCOGENE™ Research Products, San Diego, Calif.), 1 μg/mL monoclonal FLAG® antibody (Sigma, St. Louis, Mo.), or 1% DMSO were added to the collagen before it jelled. After 36 hours of incubation at 37° C. the medium was removed from the top of collagen gels and weighed. The weight of media added at the start of the 37° C. incubation (1 gram) was subtracted from the total media weights to reveal the amount of media liberated by collagen gel destruction.
An in vitro collagen destruction assay was developed to determine whether the MMP-1 levels in MDA-231 cells with the empty vector were functionally capable of degrading a collagen matrix, and whether the shRNA-mediated reduction in MMP-1 was sufficient to change the invasive behavior of the cells. MDA-231 cells harboring either the empty vector or the MMP-1 shRNA were embedded in a solution of type I collagen (1 mL). The collagen was allowed to solidify at 37° C., and 1 mL of serum-free medium was layered on top of each gel. After 36 hours at 37° C., the medium was removed from each well and photographs were taken. No collagen was visible in wells containing MDA-231 cells with the empty vector. […] The medium removed from each well was weighed to quantitate the amount of medium liberated as the gel was destroyed. After 36 hours, approximately 1 mL (0.8±0.06 grams) of medium was liberated from the collagen gels containing the MDA-231 cells with the empty vector. […] Conversely, no medium (−0.01±0.03 grams) was liberated from collagen gels containing MDA-231 cells producing the MMP-1 shRNA. The slight decrease in the volume of medium recovered may be due to evaporation of the medium during the incubation period.

B1: MMP-1 shRNA: Vector-expressed small hairpin RNA, SEQ ID NO:1 (sense) and SEQ ID NO:2 (antisense), specific to bases 234-252 of MMP-1 mRNA (nucleic acid)
sense: GATCCCCACCAGATGCTGAAACCCTGTTCAAGAGACAGGGTTTCAGCATCTGGTTTTTTGGAAA
antisense: AGCTTTTCCAAAAAACCAGATGCTGAAACCCTGTCTCTTGAACAGGGTTTCAGCATCTGGTGGG
modifications: the letters are possibly those of the target site
B1 was tested, and the “MMP-1 mRNA levels lower than empty vector” value (MMP-1 mRNA) was 73%, the “MMP-2 mRNA level” value (MMP-2 mRNA) was 8.8 ± 7.8 copies of the target gene/pg GAPDH and the “MMP-9 mRNA level” value (MMP-9 mRNA) was 197.3 ± 106 copies of the target gene/pg GAPDH. The “MT1-MMP mRNA level” value (MT1-MMP (MMP-14) mRNA) was 107000 ± 46000 copies of the target gene/pg GAPDH, the “appearance of collagen gel” value ([1]; 36 hours) was “appeared to be intact” and the “medium liberated from collagen gels” value ([1]; 36 hours at 37° C.) was −0.01±0.03 grams. The collagen gel destruction ([1]; as long as five days) was “no collagen gel destruction”.
